According to article PMC5278397:

Target: gp130 extracellular domain (UniProt P40189)
Assay: SPR; gp130 extracellular domain amine-coupled on CM5; fixed excess of IL-6 and differing concentrations of gp80 (0–250 nM) with or without VHH6; 100 μl/min; 1:1 binding model; 25 °C, HBS-P+; BIAcore T200

Chain of gp130 extracellular domain (P40189 23-619): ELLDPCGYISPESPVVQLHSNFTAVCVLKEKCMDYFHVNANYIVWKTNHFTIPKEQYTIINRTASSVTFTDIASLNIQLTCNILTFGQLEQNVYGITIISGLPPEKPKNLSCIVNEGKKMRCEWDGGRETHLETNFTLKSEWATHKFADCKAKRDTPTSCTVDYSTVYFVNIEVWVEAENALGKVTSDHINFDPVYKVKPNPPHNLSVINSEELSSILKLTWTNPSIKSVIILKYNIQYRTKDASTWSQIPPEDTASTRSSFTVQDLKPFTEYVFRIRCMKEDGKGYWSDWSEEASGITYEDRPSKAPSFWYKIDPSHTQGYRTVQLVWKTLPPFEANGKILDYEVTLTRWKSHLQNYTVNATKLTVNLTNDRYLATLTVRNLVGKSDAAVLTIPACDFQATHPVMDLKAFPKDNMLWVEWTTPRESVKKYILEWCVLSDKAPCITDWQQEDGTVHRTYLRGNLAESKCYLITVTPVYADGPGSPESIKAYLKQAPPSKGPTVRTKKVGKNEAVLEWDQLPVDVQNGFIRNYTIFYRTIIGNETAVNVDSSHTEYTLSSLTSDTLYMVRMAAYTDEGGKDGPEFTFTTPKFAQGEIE
Chain of IL-6–gp80 complex (IL-6 with gp80V4) (P05231 49-212): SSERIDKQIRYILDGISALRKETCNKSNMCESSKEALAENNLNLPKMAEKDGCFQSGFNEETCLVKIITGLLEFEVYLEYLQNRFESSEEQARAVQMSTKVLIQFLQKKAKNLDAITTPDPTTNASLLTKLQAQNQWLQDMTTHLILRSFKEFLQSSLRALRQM
Chain of IL-6–gp80 complex (IL-6 with gp80V4) (P08887 111-322): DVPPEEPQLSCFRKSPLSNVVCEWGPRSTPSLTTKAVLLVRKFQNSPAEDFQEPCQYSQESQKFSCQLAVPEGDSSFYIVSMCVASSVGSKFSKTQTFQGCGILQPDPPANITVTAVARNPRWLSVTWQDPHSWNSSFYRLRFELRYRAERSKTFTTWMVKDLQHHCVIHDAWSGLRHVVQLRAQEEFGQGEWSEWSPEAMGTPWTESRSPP

Substance: IL-6–gp80 complex (IL-6 with gp80V4) (from UniProt P05231 49-212; P08887 111-322)
- koff: 0.037 s⁻¹
- kon: 360000 M⁻¹ s⁻¹
